Source: patent CN113278066A
Like-named read-outs stand apart in the source and are kept apart here.

Columns and labels:
[1] = molecular target: 非洲猪瘟病毒(ASFV)灭活抗原 (African swine fever virus)
[2] = molecular target: 非洲猪瘟病毒(ASFV)灭活抗原 (African swine fever virus); remark: listed apart in the source
[3] = molecular target: 非洲猪瘟病毒(ASFV)灭活抗原 (African swine fever virus); remark: listed apart in the source

B1: 全猪源非洲猪瘟病毒单克隆抗体 κ-9B (antibody, V domains shown)
VH: EGKLVESGGGLVQPGGSLRLSCVGSGFDFINTYMNWVRQAPGKGLEWLATISTKGISTYYADSVKGRFTISKDNSQNTADLLMRILRIEDTVRYFCAMSDSGGRNCVAGDSSCPHYYGMNLWGPGVEVVVSS
VL: AIQLTQSPASLAASLGDTVSVTCRASQSISSYLAWYQQQPGKAPKLLIVAASTLQSGVPSRFKGSGSGTDFTLTISGLQAEDVATYYCFQRNSVPWTFGQGTKLELKA
- OD值 [1]: 0.733 OD450nm
- OD值 [2]: 1.91 OD450nm
- OD值 [3]: 0.717 OD450nm
